Results as given in patent US20260184748A1 (University of Pennsylvania, published 2026).
Where no end group is shown, it is not given here. [ ]: non-standard residue; d: D form.

T1: FPR1 (UniProt P21462 1-350)
T1 sequence (looked up): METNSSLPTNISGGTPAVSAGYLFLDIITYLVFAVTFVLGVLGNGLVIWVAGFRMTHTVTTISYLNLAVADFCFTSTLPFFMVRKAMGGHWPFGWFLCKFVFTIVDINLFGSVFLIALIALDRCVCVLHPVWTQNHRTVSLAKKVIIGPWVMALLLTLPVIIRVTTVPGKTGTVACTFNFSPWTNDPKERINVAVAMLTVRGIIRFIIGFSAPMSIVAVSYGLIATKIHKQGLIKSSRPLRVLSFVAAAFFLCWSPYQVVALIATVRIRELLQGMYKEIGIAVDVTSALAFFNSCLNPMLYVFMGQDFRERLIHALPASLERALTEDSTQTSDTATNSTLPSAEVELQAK

T2: FPRL1 (UniProt P25090 1-351)
T2 sequence (looked up): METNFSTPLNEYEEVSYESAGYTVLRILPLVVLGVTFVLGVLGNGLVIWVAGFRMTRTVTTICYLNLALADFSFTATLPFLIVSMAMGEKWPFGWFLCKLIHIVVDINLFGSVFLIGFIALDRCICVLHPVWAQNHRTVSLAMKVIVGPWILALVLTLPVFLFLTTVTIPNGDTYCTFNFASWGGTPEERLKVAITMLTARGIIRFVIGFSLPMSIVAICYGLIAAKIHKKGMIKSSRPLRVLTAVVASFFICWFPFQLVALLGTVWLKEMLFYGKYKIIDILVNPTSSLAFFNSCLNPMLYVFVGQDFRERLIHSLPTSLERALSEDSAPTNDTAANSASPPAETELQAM


Key:
Test in all cases: cell-based or functional assay
[1] = target: F2RL1 (UniProt P55085 26-397, limits assumed)
[2] = target: T1, FPR1
[3] = target: T2, FPRL1

Row | EC50 (RC50), arrestin, agonist mode [1] | EC80, arrestin, agonist mode [1] | EC80, arrestin, agonist mode [2] | EC80, arrestin, agonist mode [3] | Binder
1 | 552 nM | 2130 nM | – | – | SLIGRL-NH2 [SLIGRL-NH2]
2 | – | – | 25.2 nM | 11.8 nM | WKYMV[dM]-NH2 [WKYMVm-NH2]
